PMC6509359

Legend:
[1] = molecular target: D. rerio USP28 (1-738,763-1187) (zebrafish (Danio rerio)); test: not stated; oligomeric states of purified orthologs and of full-length proteins, Figures S7A, S7B and S3J
[2] = molecular target: Chimera: Huma USP25 (157-[AIM of D. rerio USP28]-714) (human | zebrafish (Danio rerio)); test: SEC-MALS; 100 μL of 1-2 mg/mL protein on Superdex 200 10/300, 0.5 mL/min, PBS + 2 mM DTT
[3] = molecular target: G. gallus USP25 (174-726) (chicken (Gallus gallus)); test: not stated; oligomeric states of purified orthologs and of full-length proteins, Figures S7A, S7B and S3J
[4] = molecular target: Chimera: Human USP25 (157-[Insert of Human USP28]-714) (human); test: SEC-MALS; 100 μL of 1-2 mg/mL protein on Superdex 200 10/300, 0.5 mL/min, PBS + 2 mM DTT
[5] = molecular target: Chimera: Human USP28 (149-[Insert of Human USP25]-703) (human); test: as above
[6] = molecular target: D. rerio USP28 (138-684) (zebrafish (Danio rerio)); test: not stated; oligomeric states of purified orthologs and of full-length proteins, Figures S7A, S7B and S3J
[7] = molecular target: G. gallus USP25 (174-726)∼Ub-PA (chicken (Gallus gallus) | not stated); test: as above

Q: With “D. rerio USP28 (1-738,763-1187) (enzyme)” as the substance, how does the stoichiometry N [1] read?
A: 2

Q: With “Chimera: Huma USP25 (157-[AIM of D. rerio USP28]-714) (domain or fragment)” as the substance, how does the stoichiometry N [2] read?
A: 2

Q: For “G. gallus USP25 (174-726) (domain or fragment)”, which stoichiometry N [3] is on record?
A: 4

Q: For “Chimera: Human USP25 (157-[Insert of Human USP28]-714) (domain or fragment)”, which stoichiometry N [4] is on record?
A: 2

Q: For “Chimera: Human USP28 (149-[Insert of Human USP25]-703) (domain or fragment)”, which stoichiometry N [5] is on record?
A: 2

Q: For “D. rerio USP28 (138-684) (domain or fragment)”, which stoichiometry N [6] is on record?
A: 2

Q: Which stoichiometry N [7] does the source give for “G. gallus USP25 (174-726)∼Ub-PA (from UniProt P0CG48 1-75) (complex)” here?
A: 2
